± gives the standard deviation of the averaged measurements.
Test: total protein half-life in vivo (active degradation + dilution); higher = more stable protein
[1] = E. coli NCM3722 delta-clpP delta-lon delta-hslV, growth: N-lim chemostat, doubling time 6 h
[2] = E. coli NCM3722 delta-clpP, growth: N-lim chemostat, doubling time 6 h
[3] = E. coli NCM3722 delta-hslV, growth: N-lim chemostat, doubling time 6 h
[4] = E. coli NCM3722 delta-lon, growth: N-lim chemostat, doubling time 6 h
[5] = E. coli NCM3722 delta-smpB, growth: N-lim chemostat, doubling time 6 h
[6] = wild type E. coli NCM3722, growth: C-lim chemostat, doubling time 3 h
[7] = wild type E. coli NCM3722, growth: C-lim chemostat, doubling time 6 h
[8] = wild type E. coli NCM3722, growth: C-lim chemostat, doubling time 12 h
[9] = wild type E. coli NCM3722, growth: N-lim chemostat, doubling time 6 h
[10] = wild type E. coli NCM3722, growth: N-lim chemostat, doubling time 12 h
[11] = wild type E. coli NCM3722, growth: P-lim chemostat, doubling time 6 h
[12] = wild type E. coli NCM3722, growth: P-lim chemostat, doubling time 12 h

Sequence | total protein half-life in vivo [1] [h] | total protein half-life in vivo [2] [h] | total protein half-life in vivo [3] [h] | total protein half-life in vivo [4] [h] | total protein half-life in vivo [5] [h] | total protein half-life in vivo [6] [h] | total protein half-life in vivo [7] [h] | total protein half-life in vivo [8] [h] | total protein half-life in vivo [9] [h] | total protein half-life in vivo [10] [h] | total protein half-life in vivo [11] [h] | total protein half-life in vivo [12] [h]
MRILLIEDDMLIGDGIKTGLSKMGFSVDWFTQGRQGKEALYSAPYDAVILDLTLPGMDGRDILREWREKGQREPVLILTARDALAERVEGLRLGADDYLCKPFALIEVAARLEALMRRTNGQASNELRHGNVMLDPGKRIATLAGEPLTLKPKEFALLELLMRNAGRVLSRKLIEEKLYTWDEEVTSNAVEVHVHHLRRKLGSDFIRTVHGIGYTLGEK | 4.652 ± 0.039 | 4.22 ± 0.3 | 4.1 ± 0.33 | 4.5 ± 0.27 | 4.06 ± 0.37 | 2.92 ± 0.042 | 5.51 ± 0.24 | 10.8 ± 1.9 | 4.2 ± 0.12 | 6.35 ± 0.32 | 5.267 ± 0.0074 | 11 ± 0.5
MRILLSNDDGVHAPGIQTLAKALREFADVQVVAPDRNRSGASNSLTLESSLRTFTFENGDIAVQMGTPTDCVYLGVNALMRPRPDIVVSGINAGPNLGDDVIYSGTVAAAMEGRHLGFPALAVSLDGHKHYDTAAAVTCSILRALCKEPLRTGRILNINVPDLPLDQIKGIRVTRCGTRHPADQVIPQQDPRGNTLYWIGPPGGKCDAGPGTDFAAVDEGYVSITPLHVDLTAHSAQDVVSDWLNSVGVGTQW [P0A840] | 4.833 ± 0.047 | 4.03 | 4.1 ± 0.25 |  | 3.71 ± 0.83 | 3.04 ± 0.33 | 6.21 ± 0.81 | 8.36 ± 0.48 | 4.5 | 5.84 ± 1.5 |  | 
MRILVLGVGNILLTDEAIGVRIVEALEQRYILPDYVEILDGGTAGMELLGDMANRDHLIIADAIVSKKNAPGTMMILRDEEVPALFTNKISPHQLGLADVLSALRFTGEFPKKLTLVGVIPESLEPHIGLTPTVEAMIEPALEQVLAALRESGVEAIPREAIHD | 5.25 ± 0.57 | 4.51 ± 0.38 | 4.14 ± 0.58 | 5.3 ± 0.96 | 3.53 ± 0.16 | 3.09 ± 0.27 | 5.7 ± 1.1 | 11.5 ± 0.37 | 4.28 ± 0.7 | 6.81 ± 0.15 | 6.77 ± 0.8 | 11 ± 0.18
MRKIVAMAVICLTAASGLTSAYAAQLADDEAGLRIRLKNELRRADKPSAGAGRDIYAWVQGGLLDFNSGYYSNIIGVEGGAYYVYKLGARADMSTRWYLDGDKSFGFALGAVKIKPSENSLLKLGRFGTDYSYGSLPYRIPLMAGSSQRTLPTVSEGALGYWALTPNIDLWGMWRSRVFLWTDSTTGIRDEGVYNSQTGKYDKHRARSFLAASWHDDTSRYSLGASVQKDVSNQIQSILEKSIPLDPNYTLKGELLGFYAQLEGLSRNTSQPNETALVSGQLTWNAPWGSVFGSGGYLRHAMNGAVVDTDIGYPFSLSLDRNREGMQSWQLGVNYRLTPQFTLTFAPIVTRGYESSKRDVRIEGTGILGGMNYRVSEGPLQGMNFFLAADKGREKRDGSTLGDRLNYWDVKMSIQYDFMLK |  |  |  |  |  | 3.55 ± 0.51 | 7.84 | 11.5 ± 2 |  |  |  | 
MRKSVIAIIIIVLVVLYMSVFVVKEGERGITLRFGKVLRDDDNKPLVYEPGLHFKIPFIETVKMLDARIQTMDNQADRFVTKEKKDLIVDSYIKWRISDFSRYYLATGGGDISQAEVLLKRKFSDRLRSEIGRLDVKDIVTDSRGRLTLEVRDALNSGSAGTEDEVTTPAADNAIAEAAERVTAETKGKVPVINPNSMAALGIEVVDVRIKQINLPTEVSEAIYNRMRAEREAVARRHRSQGQEEAEKLRATADYEVTRTLAEAERQGRIMRGEGDAEAAKLFADAFSKDPDFYAFIRSLRAYENSFSGNQDVMVMSPDSDFFRYMKTPTSATR [P0ABC3] | 6.51 ± 1.1 | 6.07 ± 0.18 | 6.357 ± 0.024 | 6.347 ± 0.034 | 5.72 ± 0.33 | 3.09 ± 0.1 | 6.06 ± 0.14 | 11.7 ± 0.84 | 6.653 ± 0.049 | 12.7 ± 0.77 | 6 ± 0.65 | 13.8 ± 0.97
MRLCDRDIEAWLDEGRLSINPRPPVERINGATVDVRLGNKFRTFRGHTAAFIDLSGPKDEVSAALDRVMSDEIVLDEGEAFYLHPGELALAVTLESVTLPADLVGWLDGRSSLARLGLMVHVTAHRIDPGWSGCIVLEFYNSGKLPLALRPGMLIGALSFEPLSGPAVRPYNRREDAKYRNQQGAVASRIDKD | 3.92 ± 0.54 | 3.36 ± 0.25 | 3.062 ± 0.021 | 4.56 ± 1.7 | 3.14 ± 0.53 | 2.852 ± 0.011 | 4.81 ± 0.3 | 7.69 ± 0.16 | 3.17 ± 0.19 | 4.96 ± 0.52 | 5.25 ± 0.11 | 10.4 ± 0.19
